{"source": "paper PMC4384728", "about": "(The Journal of Cell Biology, 2015)", "key": {"HA-VEGFR2-TMD": {"target": "T1, HA-VEGFR2-TMD", "T1 chain": "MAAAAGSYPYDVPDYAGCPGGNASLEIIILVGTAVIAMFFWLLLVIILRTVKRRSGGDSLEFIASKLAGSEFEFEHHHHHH", "assay": "pull-down"}, "HA-VEGFR3-TMD": {"target": "T2, HA-VEGFR3-TMD", "T2 chain": "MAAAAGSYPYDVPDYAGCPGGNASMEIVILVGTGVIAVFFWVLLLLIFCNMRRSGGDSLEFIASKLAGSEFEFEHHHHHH", "assay": "pull-down"}}, "data": [{"binder": "Flag-VE-TMD (domain or fragment) MAAAAGSDYKDDDDKGCPGGNASVSIQAVVAILLCILTITVITLLIFLRRRSGGLNDIFEAQKIEWHESSEFEFEHHHHHH", "values": [{"measurement": "binding result", "setting": "HA-VEGFR2-TMD", "result": "binds"}, {"measurement": "binding result", "setting": "HA-VEGFR3-TMD", "result": "binds"}]}]}
